Results taken from patent publication US20100105875A1 (published 2010).

How the values were obtained:
[1] = target: T1, recombinant fHbp from MC58 with Arg204 changed to histidine (Neisseria meningitidis strain MC58, UniProt E6MV22 27-274); test: western blot of site-directed mutant of recombinant MC58 fHbp
T1 construct: also called Arg204→His mutant
T1 sequence: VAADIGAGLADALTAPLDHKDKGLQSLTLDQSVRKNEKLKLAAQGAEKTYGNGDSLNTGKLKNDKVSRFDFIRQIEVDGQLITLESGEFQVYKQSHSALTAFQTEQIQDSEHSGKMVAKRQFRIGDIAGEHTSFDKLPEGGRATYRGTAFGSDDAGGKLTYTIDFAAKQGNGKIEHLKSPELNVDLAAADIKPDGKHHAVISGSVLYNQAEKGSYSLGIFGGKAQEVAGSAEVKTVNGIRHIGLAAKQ

[2] = target: T2, fHbp of N. meningitidis strain MC58 (full-length mature factor H binding protein) (Neisseria meningitidis strain MC58, UniProt E6MV22 20-274); test: western blot on cell extracts; FACS on bacteria
T2 construct: also called MC58 fHbp; protein 741
T2 sequence: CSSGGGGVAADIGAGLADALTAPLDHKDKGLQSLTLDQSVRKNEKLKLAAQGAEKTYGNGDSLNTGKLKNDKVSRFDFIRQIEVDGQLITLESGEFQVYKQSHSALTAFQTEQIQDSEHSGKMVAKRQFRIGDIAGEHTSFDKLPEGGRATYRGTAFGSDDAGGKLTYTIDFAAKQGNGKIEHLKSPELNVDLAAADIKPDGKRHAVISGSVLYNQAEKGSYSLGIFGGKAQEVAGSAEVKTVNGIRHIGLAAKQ

B1: MAb502 (antibody, V domains shown)
VH: EVQLQESGPGLAKPSQTLSLTCSVTGYSITSDFWNWIRKFPGNKLEYMGYISYSGSTDYNPSLKSRISITRDTSKNQYYLQLNSVTAEDTATYYCARYFGSSYAMDHWGQGTSVTVSS
VL: DIQMTQSPASLSASVGETVTITCRASGNIHNYLAWYQQKQGKSPQLLVYTAKTLAEGVPSRFSGSGSGTQFSLKINSLQPEDFGSYYCQHFWSTPWTFGGGTKLEIKR
notes: also called monoclonal anti-fHbp antibody MAb502
binding result [1]: no binding
binding result [2]: binds
